Data taken from patent US11497796B2, “Agents directed against a cis RGMa/neogenin interaction or lipid rafts and use of the same in methods of treatment” (UNIVERSITY HEALTH NETWORK, priority 2013, dated 2022).

Columns and labels:
retinal cells = assay: Ocular ischemia by ligation of the main optic artery, cell survival; format: in vivo, rat; conditions: injection into the eye after ligation
Description: (A,B,C) Schematic representation of the experiments performed on the eye. A) the main artery was ligated to stop blood flow for 15 min. B) RGMa was injected into the eye vitreous just after ligation. C) 2 weeks after ligation, retrograde labeling was performed to assess cell survival. D) Representation of the retinal areas used for quantification. E) Quantification of cell survival performed on 8 rats for each condition.
To extend this study, whether RGMa injection into the eye affected cell survival after ligation of the main optic artery to induce ocular ischemia was tested.

retinal whole mounts = assay: Oxygen Glucose Deprivation (OGD) in retinal whole mounts, PI staining; format: cell-based; conditions: added to the medium, OGD 1 hour, 24 hours
Description: Specifically, retinal whole mounts were subjected to OGD for 1 hour. After ischemia, whole mounts were incubated for 24 hours and dead cells were identified using propidium iodide (PI) staining.
To determine whether Neogenin required lipid raft association to induce cell death, OGD was performed on retinal whole mounts in the presence of 4Ig, which as described above, prevented Neogenin localization into lipid rafts.

B1: RGMa: Repulsive Guidance Molecule A added to the medium or injected into the eye (protein)
chain: PHLRTFTDTFQTCKVQGAWPLIDNNYLNVQVTNTPVLPGSSATATSKLTIIFKSFQECVEQKVYQAEMDELPAAFADGSKNGGDKHGANSLKITEKVSGQHIEIQAKYIGTTIVVRQVGRYLTFAVRMPEEVVNAVEDRDSQGLYLCLRGCPLNQQIDFQTFRLAQAAEGRARRKGPSLPAPPEAFTYESATAKCREKLPVEDLYFQSCVFDLLTTGDVNFMLAAYYAFEDVKMLHSNKDKLHLYERTRALAPGN
For B1, the “enhancement of survival compared to controls” value (retinal cells) was “up to 2 times” and the “cell survival after OGD” value (retinal whole mounts) was “promoted cell survival”.
